Experimental data from patent publication US20140050743A1, “BINDING PROTEINS TO INHIBITORS OF COAGULATION FACTORS” (BAYER INTELLECTUAL PROPERTY GMBH, priority 2011, published 2014).
Substitutions are numbered along the chain they refer to.

Experiment: ELISA-based activity assay of antibody variants without a competition step
Format: binding
Design: key: +++: Variants with an average ratio above reference plus 2×SD; +/−: variants with a ratio below reference minus 2×SD; ++: All variants with a performance in between both thresholds; −: Variants with a ratio below 0.5
Conditions: Table 10, multiple substitutions within M14-G07, variant to reference ratio (reference 2-fold improved over wt)
Protocol: To determine the activity of the mutated antibody variants on compound from Example 1K an equilibrium or dissociation limited ELISA assay format was used. Briefly, MTP plates (Nunc Maxisorp black, 460518) were coated with 4 μg/ml streptavidin (Calbiochem, 189730) diluted in coating buffer (Candor Bioscience GmbH, 121500) and incubated over night at 4° C. After washing with PBST, plates were blocked with 100% Smart Block (Candor Bioscience GmbH, 113500) in PBST for 1 h at room temperature and the washing step was repeated. Plates were incubated with compound from Example 1K at varying concentrations (0.3-200 nM) for 1 h at 37° C., washed with PBST and antibody fragments were immobilized by adding 25 μl of the crude bacterial cultures for 1 h at room temperature. After washing with PBST a competition step or the immediate detection was performed. […] For the detection of the residually bound Fabs a HRP-coupled anti-lambda antibody (Sigma, A5175) diluted in 10% Smart Block in PBST was added for 1 h at room temperature. After washing 10 μM Amplex Red (Invitrogen, A12222) were added and incubated for 10 to 30 min at room temperature followed by measurement of the fluorescence signal.
Provided in Table 9 are several examples of single and/or double amino acid substitutions introduced into the heavy and/or the light chain of M14-G07 (wt). Performance of the variants was analyzed in quadruples in the ELISA without a competition step and the FXa deinhibition assay (FXa DIA). In the ELISA, averages were calculated and normalized to the respective average expression level. Overall performance of variants was evaluated by comparing the variant to wt ratio from 2-3 independent experiments. Variants with an average ratio above wt plus 2×SD (standard deviation of the ratio) were considered as improved and are marked with “++”, whereas variants with a ratio below wt minus 2×SD were considered as reduced in their binding affinity and are marked with “−”. All variants with a performance in between both thresholds are marked with “+/−”. Variants with average fluorescence counts below the negative control (non-expressing cells) plus 3×SD were considered as non-binding and marked with “−−” with none of the variants fulfilling this criteria. In the FXa deinhibition assay averages were calculated and overall performance of variants was evaluated by comparing the variant to wt ratio from 2-3 independent experiments. Variants with an average ratio above wt plus 2×SD were considered as improved and are marked with “++”, whereas variants with a ratio below wt minus 2×SD were considered as either reduced in their binding affinity or non-binding and are marked with “−−”. All variants with a performance in between both thresholds are marked with “+/−”. Variants not analyzed are marked with “nd” (not determined). CDRs were defined according to Kabat.
Provided in Table 10 are examples of combined amino acid substitutions within M14-G07 antibodies. While not every combination is provided in Table 10, it is contemplated that the anti-rivaroxaban antibody may comprise any combination of modifications provided. Variant performance was analyzed in quadruples in the ELISA without a competition step. Averages were calculated, average background signals determined on a streptavidin coated plate without compound from Example 1K were subtracted if the compound from Example 1K concentration used for coating was below 10 nM and signals were normalized to the respective average expression level. Overall performance of variants was evaluated by comparing the variant to reference ratio from 2-3 independent experiments using a 2-fold improved reference variant as compared to wt. Variants with an average ratio above reference plus 2×SD are marked with “+++”, whereas variants with a ratio below reference minus 2×SD are marked with “+/−”. All variants with a performance in between both thresholds are marked with “++”. […]

B1: M14-G07-3: antibody, Vh SEQ ID NO: 131, Vl SEQ ID NO: 132 (antibody, listed as Homo Sapiens, V domains shown)
VH: EVQLLESGGGLVQPGGSLRLSCAASGFTFSSYAMSWVRQAPGKGLEWVSGISGSGGSTYYADSVKGRFTISRDNSKNTLYLQMNSLRAEDTAVYYCARQGRTSFYLDVWGQGTLVTVSS
VL: QSVLTQPPSASGTPGQRVTISCSGSSRNIGSYYVYWYQQLPGTAPKLLIYDNRQRPSGVPDRFSGSKSGTSASLAISGLRSEDEADYYCVAWDDSWSGTWVFGGGTKLTVL
ELISA: +++

B2: M14-G07-19: antibody, Vh SEQ ID NO: 163, Vl SEQ ID NO: 164 (antibody, listed as Homo Sapiens, V domains shown)
VH: B1 VH
VL: B1 VL with Y32F, W96L, T99H
ELISA: +++

B3: M14-G07-20: antibody, Vh SEQ ID NO: 165, Vl SEQ ID NO: 166 (antibody, listed as Homo Sapiens, V domains shown)
VH: B1 VH with T28R, S49G
VL: B1 VL with R27S, S31A, R53N, W96L
ELISA: +++

B4: M14-G07-9: antibody, Vh SEQ ID NO: 143, Vl SEQ ID NO: 144 (antibody, listed as Homo Sapiens, V domains shown)
VH: B1 VH with T28R, S49G
VL: B1 VL with Y32F, R53N, D94V, W96L, T99H
ELISA: +++

B5: M14-G07-15: antibody, Vh SEQ ID NO: 155, Vl SEQ ID NO: 156 (antibody, listed as Homo Sapiens, V domains shown)
VH: B1 VH with S49G
VL: B1 VL with R27S, R53N, T99H
ELISA: +++

B6: M14-G07-21: antibody, Vh SEQ ID NO: 167, Vl SEQ ID NO: 168 (antibody, listed as Homo Sapiens, V domains shown)
VH: B1 VH with T28R, S49G, R101E
VL: B1 VL with R27S, Q38H, R53N
ELISA: +++

B7: M14-G07-4: antibody, Vh SEQ ID NO: 133, Vl SEQ ID NO: 134 (antibody, listed as Homo Sapiens, V domains shown)
VH: B1 VH with T28R, S49G
VL: B1 VL with S31A, W96Y
ELISA: +++

B8: M14-G07-25: antibody, Vh SEQ ID NO: 175, Vl SEQ ID NO: 176 (antibody, listed as Homo Sapiens, V domains shown)
VH: B1 VH with T28R, S49G
VL: B1 VL with R27S, S31A, R53N, W96Y
ELISA: +++

B9: M14-G07-22: antibody, Vh SEQ ID NO: 169, Vl SEQ ID NO: 170 (antibody, listed as Homo Sapiens, V domains shown)
VH: B1 VH with S49G
VL: B1 VL with R27S, S31A, R53N
ELISA: +++

B10: M14-G07-12: antibody, Vh SEQ ID NO: 149, Vl SEQ ID NO: 150 (antibody, listed as Homo Sapiens, V domains shown)
VH: B1 VH
VL: B1 VL with R53N
ELISA: +++

B11: M14-G07-17: antibody, Vh SEQ ID NO: 159, Vl SEQ ID NO: 160 (antibody, listed as Homo Sapiens, V domains shown)
VH: B1 VH with S49G
VL: B1 VL with S31A, Y32F
ELISA: +++

B12: M14-G07-14: antibody, Vh SEQ ID NO: 153, Vl SEQ ID NO: 154 (antibody, listed as Homo Sapiens, V domains shown)
VH: B1 VH with S49G
VL: B1 VL with W96Y
ELISA: +++

B13: M14-G07-16: antibody, Vh SEQ ID NO: 157, Vl SEQ ID NO: 158 (antibody, listed as Homo Sapiens, V domains shown)
VH: B1 VH with T28R, S49G
VL: B1 VL with Y32F, W96Y
ELISA: +++

B14: M14-G07-8: antibody, Vh SEQ ID NO: 141, Vl SEQ ID NO: 142 (antibody, listed as Homo Sapiens, V domains shown)
VH: B1 VH with S49G
VL: B1 VL with S31A, Y32F, W96Y
ELISA: +++

B15: M14-G07-26: antibody, Vh SEQ ID NO: 177, Vl SEQ ID NO: 178 (antibody, listed as Homo Sapiens, V domains shown)
VH: B1 VH with S49G, R101K
VL: B1 VL with R27S, Y32F, R53N, W96Y
ELISA: +++

B16: M14-G07-18: antibody, Vh SEQ ID NO: 161, Vl SEQ ID NO: 162 (antibody, listed as Homo Sapiens, V domains shown)
VH: B1 VH with T28R, S49G
VL: B1 VL with R53N
ELISA: +++

B17: M14-G07-27: antibody, Vh SEQ ID NO: 179, Vl SEQ ID NO: 180 (antibody, listed as Homo Sapiens, V domains shown)
VH: B1 VH with S49G
VL: B1 VL with R27S, S31A, R53N, W96Y, T99H
ELISA: +++

B18: M14-G07-7: antibody, Vh SEQ ID NO: 139, Vl SEQ ID NO: 140 (antibody, listed as Homo Sapiens, V domains shown)
VH: B1 VH with T28R, S49G
VL: B1 VL with R53N, T99H
ELISA: +++

B19: M14-G07-10: antibody, Vh SEQ ID NO: 145, Vl SEQ ID NO: 146 (antibody, listed as Homo Sapiens, V domains shown)
VH: B1 VH with S49G
VL: B1 VL with Y32F, R53N, T99H
ELISA: +++

B20: M14-G07-11: antibody, Vh SEQ ID NO: 147, Vl SEQ ID NO: 148 (antibody, listed as Homo Sapiens, V domains shown)
VH: B1 VH with T28R, S49G
VL: B1 VL with S31A, Y32F, T99H
ELISA: +++

B21: M14-G07-6: antibody, Vh SEQ ID NO: 137, Vl SEQ ID NO: 138 (antibody, listed as Homo Sapiens, V domains shown)
VH: B1 VH with T28R, V37I, S49G
VL: B1 VL with W96Y
ELISA: +++

B22: M14-G07-24: antibody, Vh SEQ ID NO: 173, Vl SEQ ID NO: 174 (antibody, listed as Homo Sapiens, V domains shown)
VH: B1 VH
VL: B1 VL with R53N, W96L
ELISA: +++

B23: M14-G07-13: antibody, Vh SEQ ID NO: 151, Vl SEQ ID NO: 152 (antibody, listed as Homo Sapiens, V domains shown)
VH: B1 VH with S49G
VL: B1 VL with Y32F
ELISA: +++

B24: M14-G07-5: antibody, Vh SEQ ID NO: 135, Vl SEQ ID NO: 136 (antibody, listed as Homo Sapiens, V domains shown)
VH: B1 VH with T28R
VL: B1 VL with W96Y
ELISA: +++

B25: M14-G07-23: antibody, Vh SEQ ID NO: 171, Vl SEQ ID NO: 172 (antibody, listed as Homo Sapiens, V domains shown)
VH: B1 VH with T28R, S49G
VL: B1 VL with S31A, Y32F, R53N, W96L
ELISA: +++
